Data as given in the supplement of paper PMC12042874.
± gives the uncertainty stated by the source.

Experiment: amyloid nucleation score (Sup35N fusion, yeast selection) (log enrichment); library NNK3; higher = more nucleation; inactive = no reads after selection
How it was run: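 Sup35N fusions to peptides of 20 random codons were expressed in psi-negative yeast, induced 24 hours with 100 μM copper sulfate, and grown 7 days at 30°C on medium lacking adenine and uracil. Input and output plasmid inserts were sequenced by Illumina. The nucleation score is the DiMSum log enrichment of output over input reads, centred on the mode score of non-aggregating sequences. Sequences with under 100 input reads were excluded.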

Substance	amyloid nucleation score
TFVHAYTGWMEFVV	inactive
TFWVFIAQKRCSGGKYGCMC	-0.097 ± 0.69
TFYVLRPTYSITRNGAPRPL	inactive
TGLNGLRVLYSMRRPGKV	inactive
TGRVLGYGLL	inactive
TGSFIIRISSSRTMLW	inactive
TGSNRSYIFFCWSRFNVMFG	-0.002 ± 0.9
TGVFDFRRVVLLVSHSEV	inactive
TGVSIKFTSSKYYSVTSATT	inactive
THRSRKSDPNRQSFIKCGHS	inactive
THRVTTRCLLRLLRWIRM	inactive
THTTAS	inactive
TIFVVCIRIFVWFLCYGSDP	0.207 ± 0.23
TIHSRMGIVLYFFAIDCVR	inactive
TIMAFIIAIRSLDRCQSSGM	inactive
TISPFLINMFWLSCTLMSQE	0.558 ± 0.16
TISSSLKRMWDIVFSLCNNI	inactive
TIVYSLT	inactive
TIYVLCGRTIRWFVLNPLQE	inactive
TKCLRVVKRTTYGSQEFLRK	inactive
TKCTYKLGYTLYTGVKDVVR	inactive
TKDRFFLKHTGRIMLGLRR	inactive
TKGNCSAHPRRL	-0.581 ± 1.4
TKHPLYM	inactive

Substance	amyloid nucleation score
TKSYFRINMFAVLDRCGLCR	inactive
TKSYPRTMFEPALALDMP	0.871 ± 0.26
TKWVVASLVCKSAGKTGRVI	inactive
TLCSSGGMFHRSMDSITMS	inactive
TLFWMSYWMRPSNIHCCVRM	inactive
TLHCSVYMCTTYGNTHLYVH	2.2 ± 0.063
TLIHGGFTYLDQWKDETCPQ	inactive
TLLLAMNDVTSRLL	inactive
TLNLVSSTICLFR	inactive
TLPLTHYVYVVMLKSSSTGC	inactive
TLPMLDNTNNFTSPL	-0.034 ± 0.31
TLPMYTRCTTFAHLSSS	inactive
TLRGMGQHRQR	inactive
TLRMTWALSIRLSPLL	inactive
TLSKILLLSRYLYTRLKVRL	inactive
TLVSQMPCNM	inactive
TLWCNLSSGMMNFPTASRNL	1 ± 0.091
TLYVFWCEQFKRAYWLYVSK	inactive
TMHYFQNTAIDRYEMTAP	inactive
TMSIFDPVE	1.09 ± 0.11
TNEIDLSEFMLQITLMLIRG	inactive
TNINSYGLKIESGGWNQLN	inactive
TNLSSSFLTQLRVILMSFLG	0.798 ± 0.2
TNTNLMYGSGYLLLNGMQCN	inactive

Substance	amyloid nucleation score
TNTRASMFIFCVHSMSLLFY	inactive
TNYFESFY	-0.052 ± 1.2
TPCNRREISWFVFSLPA	inactive
TPGNNSYAVLMLNELTYKPA	0.92 ± 0.13
TPKLAALFS	-0.497 ± 1.3
TPLARFFTCPHIYYLSPGHS	inactive
TPLITYHQWFLAICEWLDF	inactive
TPNRGDFWITCSGGVGVWYG	inactive
TPTWFLRWWFTVSINNMVIW	inactive
TQGSLTILLGLVTEMLCAYS	inactive
TQNLNRRGKIRVVRDYIDYW	0.554 ± 0.15
TQRVGERGIIMYHPWIGYYV	0.189 ± 0.26
TQYMWAYPNND	1.18 ± 0.16
TRAYVVAIDQYFRGRRRNI	inactive
TRCSG	inactive
TRDFRTCNGLANKVRSKVCS	inactive
TREIIYRDGQALQIAGWVSP	inactive
TRGRNTKDGVDGDLPADVLV	inactive
TRLLAGFSWYVTFPVNVSGS	inactive
TRSFCVSK	inactive
TRSWVYCSKDRSMRGMHHHC	inactive
TRVDGTYKYRLFDLCDAIKF	inactive
TRWGFVCNKTHVLGDMSIGM	inactive
TRYLSSFISYGEDSMHVFCG	inactive

Substance	amyloid nucleation score
TSCFYFAMVFEQVDWDSVHT	1.58 ± 0.11
TSCRLRV	inactive
TSIIRMAPRPTHSRVIWFKV	inactive
TSLASNFANVTSVTCY	-0.679 ± 1
TSLLINVVLMVNRPGCP	1.67 ± 0.061
TSLVKRSALVFYTGTLIYPF	inactive
TSMMSWQSSHCHVYWRTDWV	0.457 ± 0.4
TSNFCPFTVQN	-0.477 ± 0.8
TSSAHNTRSCLMM	inactive
TSSHLIGLFYDMLFRDTRSM	inactive
TSSLWHWMCLEITLPSRSCK	inactive
TSSNRVLVIPVELMIPWRF	-0.299 ± 1.1
TSTSAYILGPVTQ	inactive
TSWRVFVGYWMG	inactive
TSYVLWLSRLYFVANPSDYS	inactive
TSYYIYTVSFDGCCSNLRTV	1.56 ± 0.13
TTCWVYMLVILA	1.38 ± 0.077
TTDLKC	inactive
TTEEL	inactive
TTGLFE	inactive
TTHVILCLCNL	3.07 ± 0.073
TTLMMGTEPGLDTRLSSLCY	inactive
TTMRCEIKSLYWIISQCWLD	inactive
TTSCEVAWFEICLSSLNFTM	inactive

Substance	amyloid nucleation score
TTSLKTHVLPRNVFRFEPYM	inactive
TTTCHLRIKSNMRLSQEWLG	1.17 ± 0.12
TTVDDNFVHRRPM	inactive
TVACNVFYQLCVE	inactive
TVANTNRTALNLMLEMGLGL	inactive
TVFMYRRVFSIRWG	inactive
TVHSHKWCSLVGGPIRISWT	inactive
TVICISHTFSGHCLSSYEVW	inactive
TVIMNLYAPP	2.51 ± 0.053
TVNLDQMYYMVFCVFRSMHD	0.498 ± 0.43
TVNQKPY	inactive
TVNYYRQNSIIMFESYNECC	0.579 ± 0.17
TVRASFGYNLRNWCSTVVVE	inactive
TVRYVVSASTWHMSLQSPTL	1.33 ± 0.11
TVRYVYTCFINFQTLVHRRM	-0.784 ± 0.8
TVSGQLIT	inactive
TVSIKSAHATRTQVVPNMSF	inactive
TVTGIMSKYANTSFRN	inactive
TVTVPG	inactive
TVWELM	-0.068 ± 0.33
TVYFNYRVWHTMARKQKLSS	inactive
TWATVTMVWCLNVNSVDTGL	2.26 ± 0.094
